Results on one substance are retold here after patent US6287813.

For the data set, the target named is tTA (TetR-VP16) (/ Herpes simplex virus) (UniProt P04483). Kind of data set: cell_activity. To be noted: CHO-TWIN195 without antibiotic; 8.57% with TET.
Sequence of tTA (TetR-VP16) (/ Herpes simplex virus) (P04483 whole entry): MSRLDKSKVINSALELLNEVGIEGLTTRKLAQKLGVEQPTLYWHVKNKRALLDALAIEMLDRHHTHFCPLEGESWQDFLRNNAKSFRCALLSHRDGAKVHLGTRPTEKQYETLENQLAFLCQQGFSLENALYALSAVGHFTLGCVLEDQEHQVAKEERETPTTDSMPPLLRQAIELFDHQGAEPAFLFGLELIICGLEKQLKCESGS

The substance PhCMV*-1 (tet-responsive promoter) registered an activity of 18.6 mU/ml SEAP.
